# Reference: patent US20230407267A1, “USES OF PATIENT-DERIVED SCAFFOLDS” (Iscaff Pharma AB, priority 2020, published 2023)
# Test system: MCF7 cells
# Assay: PDS co-culture of MCF7 cells with activated T-lymphocytes, with or without PD1 blockade: viability of MCF7 cells
# Type: cell-based, human
# Settings: for % of viable MCF7 cells after 48 hours of co-culture with T-lymphocytes: MCF7 + TA+ pre-incubated with Pembr 100 μg/mL 30 min, relative to only-MCF7 control, average ± SD of 3 technical replicates
# Procedure: FIG. 25. PD1 blocking antibody increases the killing capacity of the T-lymphocytes in PDS-dependent manner. T-lymphocytes were activated 20 hours by exposition to CD3/CD28 Dynabeads. […] Then, the co-cultures were incubated for 48 hours. Controls including only MCF7 cells or T-lymphocytes, and 2D cultures were included. (A) Surface expression of PD1 by T-lymphocytes analyzed by FACS. (B) Graph showing the % of viable MCF7 cells after 48 hours of co-culture with T-lymphocytes in 5 different PDSs. Data are relative to their own control with only MCF7 cells and show average±SD of 3 technical replicates.
# In addition, in FIG. 13, it is shown how differential expression of PDL1 by MCF7 cells is triggered by different breast cancer PDSs. […] First, T-lymphocytes were activated 20 hours by exposure to CD3/CD28 Dynabeads. […] The blockade of PD1 protein in the T-lymphocytes was confirmed by FACS (FIG. 25A). The T-lymphocytes, with or without PD1 blockade (Pembr) were then added to the PDS cultures, in which the MCF7 cells had been growing for 21 days. The co-cultures were incubated for 48 hours. Control samples included samples with MCF7 cells or T-lymphocytes on their own, and 2D cultures.
substance,measurement,setting,value
Pembrolizumab,% of viable MCF7 cells after 48 hours of co-culture with T-lymphocytes,2D MCF7 culture,5.5 ± 0.6%
same,% of viable MCF7 cells after 48 hours of co-culture with T-lymphocytes,PDS13,31.2 ± 1.7%
same,killing efficacy of the T-lymphocytes after Pembrolizumab treatment,"PDS13 and PDS17, compared to without this treatment",no changes
same,killing effect of the T-lymphocytes after incubation with Pembrolizumab,"PDS14, PDS15 and PDS16, compared to T-lymphocytes without this treatment",higher
same,% of viable MCF7 cells after 48 hours of co-culture with T-lymphocytes,PDS14,12.8 ± 2.3%
same,% of viable MCF7 cells after 48 hours of co-culture with T-lymphocytes,PDS15,9.5 ± 0.6%
same,% of viable MCF7 cells after 48 hours of co-culture with T-lymphocytes,PDS16,9.1 ± 2.5%
same,% of viable MCF7 cells after 48 hours of co-culture with T-lymphocytes,PDS17,19.2 ± 4.3%
same,killing capacity of the T-lymphocytes,"in PDS-dependent manner, FIG. 25 legend",increases
